# B1: recombinant human GST-tagged RIL (natural protein)
# chain: MPHSVTLRGPSPWGFRLVGGRDFSAPLTISRVHAGSKAALAALCPGDLIQAINGESTELMTHLEAQNRIKGCHDHLTLSVSRPEGRSWPSAPDDSKAQAHRIHIDPEIQDGSPTTSRRPSGTGTGPEDGRPSLGSPYGQPPRFPVPHNGSSEATLPAQMSTLHVSPPPSADPARGLPRSRDCRVDLGSEVYRMLREPAEPVAAEPKQSGSFRYLQGMLEAGEGGDWPGPGGPRNLKPTASKLGAPLSGLQGLPECTRCGHGIVGTIVKARDKLYHPECFMCSDCGLNLKQRGYFFLDERLYCESHAKARVKPPEGYDVVAVYPNAKVELV
# Columns and labels:
# [1] = biological target: Baculovirus-produced recombinant purified active human Src (kinase assays) (human) (UniProt P12931); assay: kinase activity titration (filter-binding Src kinase assay, kinetic fit)
# [2] = biological target: Baculovirus-produced recombinant purified active human Src (kinase assays) (human) (UniProt P12931); assay: kinase activity titration (filter-binding Src kinase assay, kinetic fit); apparent; increasing RIL alone titrated in the Src kinase reaction with peptide and ATP substrates
Molecule,Kd [1] [nM],Kd [2] [nM],Kd RIL in the presence of F4 (Δ225–230) [1] [nM],Kd RIL in the presence of F6 (Δ221–230) [1] [nM]
NS1 wild type (230 aa) from A/Turkey/Italy/977/99 H7N1 (F3) (natural protein),400,,,
B1,,80,230,470
